Measured values published in US6946133.

T1: HLA class I-A2 molecule (human), P04439
T1 chain: not shown


Assays:
[1] = molecular target: T1, HLA class I-A2 molecule (human), P04439; assay: T2 binding assay, peptide 50 µg/ml for 24 h, anti-HLA-A2 mAb, flow cytometry; cut off for positivity 100
[2] = molecular target: T1, HLA class I-A2 molecule (human), P04439; assay: T2 cell binding assay, peptide 50 µg/ml, HLA-A2 upregulation read with MAb A2,69 by flow cytometry

T2 binding, relative fluorescence (mean intensity) [1] | mean channel fluorescent intensity [2] | Binder
128 | 230 | FLTPKKLQCV (modifications not checked) [PSA peptide 141-150]
 | 224 | KLQCVDLHV (modifications not checked) [PSA peptide 146-154]
63.3 |  | FLTPKKLQCVDLHVISNDVCAQVHPQKVTK (modifications not checked) [prostate specific antigen oligo-epitope peptide (PSA-OP)]
